From patent US20200231679A1 (DRAGONFLY THERAPEUTICS, published 2020) come the findings set out here.

For this experiment, the target named is T1, recombinant cynomolgus NKG2D-Fc fusion protein (cynomolgus; human, UniProt P61252 73-216).
T1 construct: extracellular domain; not shown: human IgG1 Fc domain
T1 sequence (looked up): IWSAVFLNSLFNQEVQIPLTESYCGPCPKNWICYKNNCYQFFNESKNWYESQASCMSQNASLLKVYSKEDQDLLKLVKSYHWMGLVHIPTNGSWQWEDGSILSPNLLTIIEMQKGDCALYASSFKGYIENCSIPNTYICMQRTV
In words: ELISA on coated NKG2D-Fc. (In general: In an ELISA, binding on a coated surface is turned into a signal by an enzyme label.)

Where a chain is given by its changes, count along the chain named.

B1: ADI-27749 (antibody, V domains shown)
VH: EVQLVESGGGLVKPGGSLRLSCAASGFTFSSYSMNWVRQAPGKGLEWVSSISSSSSYIYYADSVKGRFTISRDNAKNSLYLQMNSLRAEDTAVYYCARGAPMGAAAGWFDPWGQGTLVTVSS
VL: DIQMTQSPSSVSASVGDRVTITCRASQGISSWLAWYQQKPGKAPKLLIYAASSLQSGVPSRFSGSGSGTDFTLTISSLQPEDFATYYCQQGVSFPRTFGGGTKVEIK
notes: also called A49
Consider B1, for which the binding result is listed as “binds”.

B2: ADI-29378 (antibody, V domains shown)
VH: QVQLVQSGAEVKKPGASVKVSCKASGYTFTSYYMHWVRQAPGQGLEWMGIINPSGGSTSYAQKFQGRVTMTRDTSTSTVYMELSSLRSEDTAVYYCAREGAGFAYGMDYYYMDVWGKGTTVTVSS
VL: EIVLTQSPATLSLSPGERATLSCRASQSVSSYLAWYQQKPGQAPRLLIYDASNRATGIPARFSGSGSGTDFTLTISSLEPEDFAVYYCQQSDNWPFTFGGGTKVEIK
notes: also called E78
In the case of B2, the binding result was “binds”.

B3: ADI-27727 (antibody, V domains shown)
VH: QVQLVQSGAEVKKPGSSVKVSCKASGGTFSSYAISWVRQAPGQGLEWMGGIIPIFGTANYAQKFQGRVTITADESTSTAYMELSSLRSEDTAVYYCARGDSSIRHAYYYYGMDVWGQGTTVTVSS
VL: not shown
On to B3, for which the binding result is recorded as “binds”.

B4: ADI-29403 (antibody, V domains shown)
VH: QVQLQQWGAGLLKPSETLSLTCAVYGGSFSGYYWSWIRQPPGKGLEWIGEIDHSGSTNYNPSLKSRVTISVDTSKNQFSLKLSSVTAADTAVYYCARARGPWSFDPWGQGTLVTVSS
VL: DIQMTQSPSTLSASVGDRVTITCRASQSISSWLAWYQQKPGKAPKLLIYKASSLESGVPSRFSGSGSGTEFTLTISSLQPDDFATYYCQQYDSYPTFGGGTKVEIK
B4: the binding result is reported as “binds”.

B5: ADI-27705 (antibody, V domains shown)
VH: B4 VH
VL: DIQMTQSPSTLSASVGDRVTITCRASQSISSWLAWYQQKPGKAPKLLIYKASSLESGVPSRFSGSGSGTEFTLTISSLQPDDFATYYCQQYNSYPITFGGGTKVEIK
Turning to B5, the binding result is recorded as “binds”.

B6: ADI-29405 (antibody, V domains shown)
VH: B4 VH
VL: DIQMTQSPSTLSASVGDRVTITCRASQSISSWLAWYQQKPGKAPKLLIYKASSLESGVPSRFSGSGSGTEFTLTISSLQPDDFATYYCQQYGSFPTFGGGTKVEIK
Turning to B6, the binding result is recorded as “binds”.

B7: ADI-29401 (antibody, V domains shown)
VH: B4 VH
VL: B6 VL with S30G, G92D, S93I, F94Y
For the molecule B7, the binding result was “binds”.

B8: ADI-27743 (antibody, V domains shown)
VH: B4 VH
VL: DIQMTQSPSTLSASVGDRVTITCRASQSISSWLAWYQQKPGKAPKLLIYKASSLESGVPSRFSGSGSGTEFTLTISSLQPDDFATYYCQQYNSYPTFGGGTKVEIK
For B8, the binding result was “binds”.

B9: ADI-29447 (antibody, V domains shown)
VH: B4 VH
VL: B6 VL with G92D, S93T, P95I
notes: also called F47
B9: the binding result is “binds”.

B10: ADI-27740 (antibody, V domains shown)
VH: B4 VH
VL: B6 VL with S30G, G92H, P95Y
notes: also called A40
In the case of B10, the binding result is recorded as “binds”.

B11: ADI-29419 (antibody, V domains shown)
VH: B4 VH
VL: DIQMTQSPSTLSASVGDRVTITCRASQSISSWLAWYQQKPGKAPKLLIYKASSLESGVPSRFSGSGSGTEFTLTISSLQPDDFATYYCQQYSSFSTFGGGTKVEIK
B11: the binding result is listed as “binds”.

B12: ADI-29404 (antibody, V domains shown)
VH: B4 VH
VL: B6 VL with Q89E, G92D, F94Y
notes: also called F04
In the case of B12, the binding result is recorded as “binds”.

B13: ADI-29421 (antibody, V domains shown)
VH: B4 VH
VL: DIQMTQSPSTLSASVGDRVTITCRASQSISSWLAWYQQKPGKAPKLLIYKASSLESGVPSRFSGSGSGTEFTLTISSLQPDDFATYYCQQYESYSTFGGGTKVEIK
For B13, the binding result is “binds”.

B14: ADI-29424 (antibody, V domains shown)
VH: B4 VH
VL: B6 VL with G92D, P95I
For B14, the binding result is reported as “binds”.

B15: ADI-29429 (antibody, V domains shown)
VH: B4 VH
VL: DIQMTQSPSTLSASVGDRVTITCRASQSIGSWLAWYQQKPGKAPKLLIYKASSLESGVPSRFSGSGSGTEFTLTISSLQPDDFATYYCQQYELYSYTFGGGTKVEIK
Turning to B15, the binding result is recorded as “binds”.

B16: ADI-29426 (antibody, V domains shown)
VH: B4 VH
VL: B6 VL with S30G, G92H
In the case of B16, the binding result is reported as “binds”.

B17: ADI-29399 (antibody, V domains shown)
VH: B4 VH
VL: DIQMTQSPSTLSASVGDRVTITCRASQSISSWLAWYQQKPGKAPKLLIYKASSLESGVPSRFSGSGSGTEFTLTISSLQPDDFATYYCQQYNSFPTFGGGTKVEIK
Regarding B17, the binding result is given as “binds”.

B18: ADI-29407 (antibody, V domains shown)
VH: B4 VH
VL: B6 VL with G92Q
As for B18, the binding result is “binds”.

B19: ADI-27741 (antibody, V domains shown)
VH: B4 VH
VL: B6 VL with S30G, Y91S, G92N, F94Y, P95Y
Consider B19, for which the binding result was “binds”.

B20: ADI-28226 (antibody, V domains shown)
VH: B4 VH
VL: B15 VL with G30S, E92G, L93S, Y94F, S95P, Y96I
notes: also called C26
As to B20, the binding result is “binds”.

B21: ADI-29425 (antibody, V domains shown)
VH: B4 VH
VL: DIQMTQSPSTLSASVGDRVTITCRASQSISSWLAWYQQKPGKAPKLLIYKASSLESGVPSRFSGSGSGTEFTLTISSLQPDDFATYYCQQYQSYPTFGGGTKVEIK
Take B21: the binding result is listed as “binds”.
